Reference: the Human Domainome abundance scans (Beltran et al. 2025)
± gives the uncertainty stated by the source.

B1: RNA-binding E3 ubiquitin-protein ligase MEX3C, residues 325 to 391; numbered along this chain, Q5U5Q3 (parent)
chain: GQTTVQVRVPYRVVGLVVGPKGATIKRIQQQTHTYIVTPSRDKEPVFEVTGMPENVDRAREEIEMHI

Variants of: B1
Assay: abundance fitness (aPCA) (normalised: wild type 0, dead -1); higher = more abundant; growth selection in yeast, the domain comes from the species named
Conditions: Homo sapiens

Variant	abundance fitness
GQTTVQVRVPYRVVGLVVGPKGCTIKRIQQQTHTYIVTPSRDKEPVFEVTGMPENVDRAREEIEMHI [A23C]	-0.352 ± 0.15
GQTTVQVRVPYRVVGLVVGPKGQTIKRIQQQTHTYIVTPSRDKEPVFEVTGMPENVDRAREEIEMHI [A23Q]	0.003 ± 0.097
GQTTVQVRVPYRVVGLVVGPKGGTIKRIQQQTHTYIVTPSRDKEPVFEVTGMPENVDRAREEIEMHI [A23G]	-0.443 ± 0.052
GQTTVQVRVPYRVVGLVVGPKGITIKRIQQQTHTYIVTPSRDKEPVFEVTGMPENVDRAREEIEMHI [A23I]	-0.332 ± 0.12
GQTTVQVRVPYRVVGLVVGPKGETIKRIQQQTHTYIVTPSRDKEPVFEVTGMPENVDRAREEIEMHI [A23E]	-0.082 ± 0.076
GQTTVQVRVPYRVVGLVVGPKGSTIKRIQQQTHTYIVTPSRDKEPVFEVTGMPENVDRAREEIEMHI [A23S]	-0.08 ± 0.064
GQTTVQVRVPYRVVGLVVGPKGRTIKRIQQQTHTYIVTPSRDKEPVFEVTGMPENVDRAREEIEMHI [A23R]	0.063 ± 0.055
GQTTVQVRVPYRVVGLVVGPKGHTIKRIQQQTHTYIVTPSRDKEPVFEVTGMPENVDRAREEIEMHI [A23H]	-0.258 ± 0.15
GQTTVQVRVPYRVVGLVVGPKGVTIKRIQQQTHTYIVTPSRDKEPVFEVTGMPENVDRAREEIEMHI [A23V]	-0.477 ± 0.068
GQTTVQVRVPYRVVGLVVGPKGWTIKRIQQQTHTYIVTPSRDKEPVFEVTGMPENVDRAREEIEMHI [A23W]	-0.553 ± 0.094
GQTTVQVRVPYRVVGLVVGPKGLTIKRIQQQTHTYIVTPSRDKEPVFEVTGMPENVDRAREEIEMHI [A23L]	-0.293 ± 0.076
GQTTVQVRVPYRVVGLVVGPKGNTIKRIQQQTHTYIVTPSRDKEPVFEVTGMPENVDRAREEIEMHI [A23N]	-0.568 ± 0.13
GQTTVQVRVPYRVVGLVVGPKGMTIKRIQQQTHTYIVTPSRDKEPVFEVTGMPENVDRAREEIEMHI [A23M]	-0.027 ± 0.1
GQTTVQVRVPYRVVGLVVGPKGFTIKRIQQQTHTYIVTPSRDKEPVFEVTGMPENVDRAREEIEMHI [A23F]	-0.868 ± 0.35
GQTTVQVRVPYRVVGLVVGPKGTTIKRIQQQTHTYIVTPSRDKEPVFEVTGMPENVDRAREEIEMHI [A23T]	-0.012 ± 0.091
GQTTVQVRVPYRVVGLVVGPKGDTIKRIQQQTHTYIVTPSRDKEPVFEVTGMPENVDRAREEIEMHI [A23D]	-0.55 ± 0.18
GQTTVQVRVPYRVVGLVVGPKGAKIKRIQQQTHTYIVTPSRDKEPVFEVTGMPENVDRAREEIEMHI [T24K]	-0.346 ± 0.12
GQTTVQVRVPYRVVGLVVGPKGAAIKRIQQQTHTYIVTPSRDKEPVFEVTGMPENVDRAREEIEMHI [T24A]	-0.53 ± 0.12
GQTTVQVRVPYRVVGLVVGPKGANIKRIQQQTHTYIVTPSRDKEPVFEVTGMPENVDRAREEIEMHI [T24N]	0.171 ± 0.12
GQTTVQVRVPYRVVGLVVGPKGAEIKRIQQQTHTYIVTPSRDKEPVFEVTGMPENVDRAREEIEMHI [T24E]	-0.304 ± 0.091

Variant	abundance fitness
GQTTVQVRVPYRVVGLVVGPKGAMIKRIQQQTHTYIVTPSRDKEPVFEVTGMPENVDRAREEIEMHI [T24M]	-0.786 ± 0.43
GQTTVQVRVPYRVVGLVVGPKGAIIKRIQQQTHTYIVTPSRDKEPVFEVTGMPENVDRAREEIEMHI [T24I]	-0.792 ± 0.19
GQTTVQVRVPYRVVGLVVGPKGAHIKRIQQQTHTYIVTPSRDKEPVFEVTGMPENVDRAREEIEMHI [T24H]	-0.28 ± 0.25
GQTTVQVRVPYRVVGLVVGPKGADIKRIQQQTHTYIVTPSRDKEPVFEVTGMPENVDRAREEIEMHI [T24D]	-0.67 ± 0.16
GQTTVQVRVPYRVVGLVVGPKGAPIKRIQQQTHTYIVTPSRDKEPVFEVTGMPENVDRAREEIEMHI [T24P]	-1.02 ± 0.21
GQTTVQVRVPYRVVGLVVGPKGACIKRIQQQTHTYIVTPSRDKEPVFEVTGMPENVDRAREEIEMHI [T24C]	-0.574 ± 0.16
GQTTVQVRVPYRVVGLVVGPKGALIKRIQQQTHTYIVTPSRDKEPVFEVTGMPENVDRAREEIEMHI [T24L]	-0.875 ± 0.14
GQTTVQVRVPYRVVGLVVGPKGAGIKRIQQQTHTYIVTPSRDKEPVFEVTGMPENVDRAREEIEMHI [T24G]	-0.371 ± 0.045
GQTTVQVRVPYRVVGLVVGPKSATIKRIQQQTHTYIVTPSRDKEPVFEVTGMPENVDRAREEIEMHI [G22S]	-0.522 ± 0.1
GQTTVQVRVPYRVVGLVVGPKTATIKRIQQQTHTYIVTPSRDKEPVFEVTGMPENVDRAREEIEMHI [G22T]	-0.68 ± 0.17
GQTTVQVRVPYRVVGLVVGPKFATIKRIQQQTHTYIVTPSRDKEPVFEVTGMPENVDRAREEIEMHI [G22F]	-0.738 ± 0.33
GQTTVQVRVPYRVVGLVVGPKLATIKRIQQQTHTYIVTPSRDKEPVFEVTGMPENVDRAREEIEMHI [G22L]	-0.587 ± 0.11
GQTTVQVRVPYRVVGLVVGPKPATIKRIQQQTHTYIVTPSRDKEPVFEVTGMPENVDRAREEIEMHI [G22P]	-0.836 ± 0.29
GQTTVQVRVPYRVVGLVVGPKKATIKRIQQQTHTYIVTPSRDKEPVFEVTGMPENVDRAREEIEMHI [G22K]	-0.424 ± 0.18
GQTTVQVRVPYRVVGLVVGPKQATIKRIQQQTHTYIVTPSRDKEPVFEVTGMPENVDRAREEIEMHI [G22Q]	-0.189 ± 0.1
GQTTVQVRVPYRVVGLVVGPKRATIKRIQQQTHTYIVTPSRDKEPVFEVTGMPENVDRAREEIEMHI [G22R]	-0.504 ± 0.063
GQTTVQVRVPYRVVGLVVGPKHATIKRIQQQTHTYIVTPSRDKEPVFEVTGMPENVDRAREEIEMHI [G22H]	-0.769 ± 0.27
GQTTVQVRVPYRVVGLVVGPKMATIKRIQQQTHTYIVTPSRDKEPVFEVTGMPENVDRAREEIEMHI [G22M]	-0.274 ± 0.084
GQTTVQVRVPYRVVGLVVGPKNATIKRIQQQTHTYIVTPSRDKEPVFEVTGMPENVDRAREEIEMHI [G22N]	-0.631 ± 0.26
GQTTVQVRVPYRVVGLVVGPKWATIKRIQQQTHTYIVTPSRDKEPVFEVTGMPENVDRAREEIEMHI [G22W]	-0.687 ± 0.11
